Target: NS1 of rgPR8-NS1-WT virus (Influenza A virus A/Puerto …, UniProt P03496)
Test: Western blot
Settings: one partner purified

Chain of NS1 of rgPR8-NS1-WT virus (P03496 whole entry): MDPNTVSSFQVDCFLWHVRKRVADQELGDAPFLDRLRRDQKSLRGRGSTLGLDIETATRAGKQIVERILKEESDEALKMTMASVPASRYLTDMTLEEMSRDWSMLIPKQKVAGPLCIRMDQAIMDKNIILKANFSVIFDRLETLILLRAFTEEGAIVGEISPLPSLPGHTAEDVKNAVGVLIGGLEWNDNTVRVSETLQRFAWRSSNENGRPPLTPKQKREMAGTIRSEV

B1: monoclonal antibody 2H6 (antibody, V domains shown)
VH: DVKLVESGGGLVNLGGSLKLSCAASGFTFSRYYMSWVRQTPEKRLELVAAINHNSGRTYYSDTVKGRFTISRDNAKNTLYLQMSSLKSEDTALYYCTRHPLIYHGNYLDYWGQGTTLTVSS
VL: DIVLTQSPASLAVSLGQRATISCKASQSVDYDGDSYVTWYQQKPGQPPKLLIYVASNLESGIPARFSGSGSGTDFTLNIHPVEEEDAATYYCQQSNEDPWTFGGGTKLEIK
Question: Does B1 bind?
Answer: Result: binds

Source: paper PMC5025888 (Scientific Reports, 2016)
